Test results as given in the supplement of paper PMC10899765.

Tests used:
Conditions in all cases: 20 nM; 72 h
MCF10A [1] = assay: one-nucleolus phenotype percent effect (relative to siNT 0% and siNOL11 100%); higher = more cells with one nucleolus (ribosome biogenesis inhibition)
Experimental: (§1)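 After 72 h, cells were fixed and stained with Hoechst and anti-fibrillarin, and nucleoli per nucleus were counted with CellProfiler. Values are plate-adjusted percent effect for the one-nucleolus and 5+ nucleoli phenotypes, normalised to siNT (0%) and to the positive controls siNOL11 or siKIF11 (100%), as the mean of biological triplicates. Percent viability is the nuclei count relative to siNT.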

MCF10A [2] = assay: percent viability (nuclei count relative to siNT); higher = more viable cells
Experimental: as §1

MCF10A [3] = assay: 5+ nucleoli phenotype percent effect (relative to siNT 0% and siKIF11 100%); higher = more cells with five or more nucleoli
Experimental: as §1

Sequence | one-nucleolus phenotype percent effect (MCF10A [1]) [%] | percent viability (MCF10A [2]) [%] | 5+ nucleoli phenotype percent effect (MCF10A [3]) [%]
CUGAAUAGCUGGGACUACAGGU [hsa-miR-5585-3p] | -12.6 | 44.1 | 16.9
UGAGUUGGCCAUCUGAGUGAG [hsa-miR-571] | -7.45 | 84.6 | 5.09
UACCCAGUCUCCGGUGCAGCC [hsa-miR-3130-5p] | 44 | 27.4 | -32.6
UUUCCCUUCAGAGCCUGGCUUU [hsa-miR-4755-5p] | 3.84 | 52.8 | 1.53
CACAGGCUUAGAAAAGACAGU [hsa-miR-4438] | -2.67 | 11.8 | 25.6
UAACGGCCGCGGUACCCUAA [hsa-miR-4485] | 0.183 | 32.8 | -19.2
CCAGCCACGGACUGAGAGUGCAU [hsa-miR-4691-3p] | -11.4 | 51.4 | 26.3
UGAUAUGUUUGAUAUAUUAGGU [hsa-miR-190a] | -13.2 | 116 | 47.6
GCUAUUUCACGACACCAGGGUU [hsa-miR-138-2-3p] | 4.26 | 43.1 | -22.8
CCAAAUCUUGAUCAGAAGCCU [hsa-miR-4762-5p] | -8.43 | 106 | 26.6
GACCUGGACAUGUUUGUGCCCAGU [hsa-miR-619] | -30.8 | 128 | 64.8
CACGGCAAAAGAAACAAUCCA [hsa-miR-4445-3p] | -16.4 | 52.2 | 25.7
ACACACUUACCCGUAGAGAUUCUA [hsa-miR-216b-3p] | -17.3 | 59 | 35.7
ACAGUAGAGGGAGGAAUCGCAG [hsa-miR-936] | -2.74 | 61.7 | 14.1
GCUGGUGACAUGAGAGGC [hsa-miR-4299] | -5.58 | 42.6 | 34.1
AGUUUGGGAUGGAGAGAGGAGA [hsa-miR-6740-5p] | -20.1 | 83.1 | 24.1
AGGAUAGGAAGAAUGAAGUGCU [hsa-miR-5191] | 14.1 | 40.6 | -7.65
CAGGGAGGUGAAUGUGAU [hsa-miR-1321] | 19.8 | 20.2 | 6.81
UGCUUCCUUUCAGAGGGU [hsa-miR-516b-3p] | 8.29 | 78.4 | -29.9
CUACUUCUACCUGUGUUAUCAU [hsa-miR-3682-5p] | 19.8 | 25.2 | -33
UCGGGGAUCAUCAUGUCACGAGA [hsa-miR-542-5p] | 1.02 | 81.9 | 30.4
ACCCUCGUCAGGUCCCCGGGG [hsa-miR-4655-3p] | -5.11 | 56.9 | 6.66
UUAGAGGCUGGAAUAGAGAUUCU [hsa-miR-6866-5p] | 9.98 | 14.1 | -0.659
CUACCCCCCAUCCCCCUGUAG [hsa-miR-6798-3p] | -5.24 | 72.5 | -13.9
